# Test results: patent US8796227B2, “Peptides for inhibiting chemokine binding to chemokine receptors” (Biokine Therapeutics Ltd., priority 2002, dated 2014)
# Entries after “also recorded” stand apart in the source; their conditions may differ.
# Legend:
# SDF-1α [1] = biological target: T1, SDF-1α (Homo sapiens, UniProt P48061); assay: ELISA analysis of the synthetic chemokine-binding peptide; details: chemokine-coated wells, specific binding = at least two fold of binding to control proteins (BSA, Actin, Fibronectin)
# T1 construct: purchased PeproTech, Inc. 300-28A
# T1 sequence (P48061 22-89 limits assumed): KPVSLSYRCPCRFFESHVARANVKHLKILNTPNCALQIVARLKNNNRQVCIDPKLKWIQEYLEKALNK
# Method: (§1) Recombinant chemokines were ordered from PeproTech, Inc. (Rocky Hill, N.J., USA). Human SDF-1α (Cat. No. 300-28A), human MIG (Cat. No. 300-26) and human IL-8, (72 amino acids) (Cat. No. 200-08M), belong to the alpha-chemokines (C-X-C) family. Human MCP-1 (MCAF) (Cat. No. 300-04) and human Eotaxin (Cat No. 300-21) belong to the beta-chemokines (C-C family). All chemokines were prepared according to the company recommendations.
# (§2) Peptides were synthesized in the Weizmann Institute of Science, Rehovot, Israel, in order to perform tests for characterization of their influence on the biological activity of the chemokines. The format of the various synthesized peptides was as follows: The cyclic peptides, ACX7CGGGSK-biotin-G and the linear peptides, X12GGGSK-biotin-G. The peptides were biotinylated on their C-termini; the biotin will serve as a detector during the following experiments. Each synthetic peptide was dissolved to concentration of 1 mg/ml (˜0.6 mM) in 4% DMSO (Dimethyl Sulphoxide, Sigma, Cat. # D-2650).
# (§3) NUNC-Immuno™ MaxiSorp™ plates (Cat. No. 4-42404) were coated with the appropriate chemokine (0.1 ml/well, 0.1-1.0 μg/ml in 0.1 M NaHCO3, pH 8.6), overnight at 4° C. The plates were then blocked with 0.2 ml/well of blocking buffer (5 mg/ml BSA in 0.1 NaHCO3). Control wells were treated with blocking buffer alone, with no addition of target protein (chemokine). The plates were washed 6 times with PBST (0.1% Tween 20 in PBS), followed by incubation for 45 minutes at room temperature with 10-fold serial dilutions of individual synthetic peptides (10pg-10 μg) with 1% BSA (PBST-BSA)/well. After the plates were washed 6 times with PBST, the bound peptides were probed by HRP-SA Conjugate, diluted 1:10,000 to 1:20,000 in PBST-BSA, 0.1 ml/well for 45 minutes at room temperature. The target-bound synthetic peptides probed with HRP-SA were quantified by DAKO TMB one-step substrate system, followed by the addition of stop solution, HCl—H2SO4 mixture (0.1 ml/well) (1N HCl, 3N H2SO4). The results were analyzed by ELISA reader at OD450.
# The present invention identifies chemokine-binding peptides with biological activity. The binding specificities of the various peptides to the chemokines were determined by screening against BSA, Actin and Fibronectin-coated wells as negative controls in parallel experiments. The binding level of the peptides to the various chemokines, which reached at least two fold of the binding level to the control proteins, was considered a specific binding.
# The specific binding of the peptides was detected by screening methodology, using ELISA, as described in “Materials and Methods”, employing microplates coated with the various chemokines to be checked. The binding specificities of the various peptides to the various chemokines were determined by screening against BSA, Actin and Fibronectin-coated wells as negative controls in parallel experiments.
# Again, the specificity of the binding, either to one chemokine or more, was established by comparing binding level with the control binding level to non-related proteins, (shown in the Figure as a broken line).
# [2] = tested on: chemokines MCP-1, SDF-1α, MIG, Eotaxin and IL-8; assay: ELISA binding to the panel of chemokines (chemokine not singled out); design: species or system human; details: five chemokines tested, control binding level = one fold
# Method: as §1, §2, §3
# The present invention identifies chemokine-binding peptides with biological activity. The binding specificities of the various peptides to the chemokines were determined by screening against BSA, Actin and Fibronectin-coated wells as negative controls in parallel experiments. […]
# The specific binding of the peptides was detected by screening methodology, using ELISA, as described in “Materials and Methods”, employing microplates coated with the various chemokines to be checked. The binding specificities of the various peptides to the various chemokines were determined by screening against BSA, Actin and Fibronectin-coated wells as negative controls in parallel experiments. […]
# MIG = biological target: T2, MIG (Homo sapiens, UniProt Q07325); assay: Biovalidation: laminar flow assay, chemokine and VCAM-1 activated adhesion of T cells; format: cell-based; details: T cell adhesion under flow, VCAM-1
# T2 construct: purchased PeproTech, Inc. 300-26
# T2 sequence (Q07325 23-125): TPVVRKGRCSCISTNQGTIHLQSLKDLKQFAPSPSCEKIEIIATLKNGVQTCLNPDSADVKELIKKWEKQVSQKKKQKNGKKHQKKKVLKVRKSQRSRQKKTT
# Method: (§4) 50 ml blood was added to 10 ml Dextran (Dextran T-500 6% w/v) in PBS (phosphate buffer saline), and 7 ml citrate buffer (25 g citrate, 8 g citric acid in 500 ml PBS). The solution was incubated for 30 min at 25° C. 10 ml Ficoll 1077 (Sigma) was added to the bottom of the tube. The tube was then centrifuged at 2,000 rpm for 30 min, at 18° C., (with the brake mode of the centrifuge off). The interphase was collected and washed twice with 8 ml PBS-5% FCS (fetal calf serum), followed by centrifugation at 1,400 rpm, for 5 min, at 18° C. The cells were re-suspended in PBS-5% FCS at a concentration less than 10^8/ml. 2 ml of the cell solution were applied and incubated for 45 min at 25° C. on a Perspex Nylon wool column, which was pre-soaked with PBS-5% FCS. Each column was washed with 8 ml PBS-5% FCS and the cells (T-cells and erythrocytes) were eluted by 50 ml of 5 mM EDTA in PBS. A red pellet was obtained by centrifugation at 1,400 rpm, at 4° C., for 5 min, with the brake on. In order to perform lysis of the erythrocytes, the red pellet was re-suspended in 5 ml lysis-buffer (155 mM NH4Cl, 10 mM KHCO3, 0.1 mM EDTA, X0.1PBS) for 4 min, followed by immediate addition of 50 ml of PBS-EDTA.
# (§5) Following centrifugation at 1,400 rpm, at 4° C., for 5 min with brake on, the pellet was washed again with 50 ml PBS-EDTA and re-centrifuged under the same conditions. A white pellet was obtained and re-suspended in RPMI/10% FCS/L-glutamine/sodium pyruvate/antibiotics at a concentration of 3^X10^6 cells/ml. The cells were incubated for 2 h at 37° C., followed by collection of the non-adherent cells. The cells were ready for use in experiments after overnight incubation at 37° C. […]
# Laminar flow assays were performed as follows. Polystyrene plates (B.D) were coated with soluble VCAM-1 at 10 μg/ml in the presence of 2 μg/ml HSA carrier. The plates were washed three times with PBS and blocked with HSA (20 μg/ml in PBS) for 2 hrs at room temperature. Alternatively, washed plates were coated with 10 μg/ml MIG chemokine in PBS for 30 min at room temperature, before being blocked with HSA. The plates were assembled as the lower wall of a parallel wall flow chamber and mounted on the stage of an inverted microscope. The peptide, as described previously, (10 μg/ml) was allowed to settle on the substrate coated chamber wall for 10 min, at 37° C. and then washed. T cells (5×10^6/ml, purity >98%) were suspended in binding buffer, perfused into the chamber and allowed to settle on the substrate coated chamber wall for 1 min, at 37° C. Flow was initiated and increased in 2 to 2.5 fold increments every 5 sec. generating controlled shear stresses on the wall. Cells were visualized in a 20× objective of an inverted phase-contrast Diaphot Microscope (Nikon, Japan) and photographed with a long integration LIS-700 CCD video camera (Applitech; Holon, Israel), connected to a video recorder (AG-6730 S-VHS, Panasonic, Japan). The number of adherent cells resisting detachment by the elevated shear forces was determined after each interval by analysis of videotaped cell images, and was expressed as the percent of originally settled cells. All adhesion experiments were performed at least three times on multiple test fields.
# IL-8 = biological target: T3, IL-8 (Homo sapiens, UniProt P10145); assay: as above; format: cell-based; design: key to Level of Antagonistic Effect / Level of Effect: + 20%; ++ 50%; +++ 100%; − No effect; details: VCAM-1
# T3 construct: human IL-8, (72 amino acids) (Cat. No. 200-08M); purchased PeproTech, Inc. 200-08M
# T3 sequence (P10145 28-99): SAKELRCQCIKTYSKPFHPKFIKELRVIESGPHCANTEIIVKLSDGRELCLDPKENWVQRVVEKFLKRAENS
# Eotaxin = biological target: T4, Eotaxin (Homo sapiens, UniProt P51671); assay: as above; format: cell-based
# T4 construct: purchased PeproTech, Inc. 300-21
# T4 sequence (P51671 24-97): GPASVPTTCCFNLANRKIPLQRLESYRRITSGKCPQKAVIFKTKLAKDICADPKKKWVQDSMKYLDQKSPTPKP
# SDF-1α [3] = biological target: T1, SDF-1α; assay: as above; format: cell-based
# Method: as §4, §5
# Laminar flow assays were performed as follows. […] The number of adherent cells resisting detachment by the elevated shear forces was determined after each interval by analysis of videotaped cell images, and was expressed as the percent of originally settled cells. […]
# [4] = T cell adhesion under flow, VCAM-1
Sequence,Bound chemokines (at least): SDF-1α (SDF-1α [1]),Binding to the various chemokines [2],Reduction of the activity of MIG (MIG),"Level of Effect (IL-8; Chemokine checked IL-8, T cells, peptide 10 μg/ml)",Abolishment of the activity of IL-8 (IL-8; T cell adhesion under flow),Kind of Effect (Eotaxin; Chemokine checked EOTAXIN),"Level of Effect (Eotaxin; Chemokine checked Eotaxin, T cells, VCAM-1, peptide 10 μg/ml)",Blocking of the activity of Eotaxin (Eotaxin; [4]),Kind of Effect (SDF-1α [3]; Chemokine checked SDF-1α),"Level of Effect (SDF-1α [3]; Chemokine checked SDF-1α, T cells, VCAM-1, peptide 10 μg/ml)",Blocking of the activity of SDF-1α (SDF-1α [3]; [4])
SQTLPYSNAPSP [BKT-P1],bind and found to bind SDF-1α,bind specifically to various chemokines; also recorded: specifically to more than one chemokine,,,,,,,,,
QIPQMRILHPYG [BKT-P23],,,no effect,−,no effect,Antagonist,+++ (+++ 100%),100%,Antagonist,+ (+ 20%),about 20%
